Source: paper PMC11856044

Target: Bombyx mori ribosomal protein RPL12 (Bombyx mori (endogenous in BmN))
Assay: Western blot of total cell proteins; total proteins of BmN cells (mock, control siRNA, BmRPL12 siRNA), anti-RPL12 polyclonal antibody; monomer and dimer bands

stoichiometry N: 2
Substance: Bombyx mori ribosomal protein RPL12 (natural protein)
